The target of assay [1] is T1, Recombinant Human Cadherin-6 (KCAD)/Fc Chimera (RD-SYSTEMS) (human, UniProt P55285 54-615, limits assumed).
T1 construct: Captured by an anti-histidine antibody; also called human CDH6; the antigen; not shown: Fc portion (and the histidine tag implied by anti-histidine capture) of the bought chimera
T1 sequence: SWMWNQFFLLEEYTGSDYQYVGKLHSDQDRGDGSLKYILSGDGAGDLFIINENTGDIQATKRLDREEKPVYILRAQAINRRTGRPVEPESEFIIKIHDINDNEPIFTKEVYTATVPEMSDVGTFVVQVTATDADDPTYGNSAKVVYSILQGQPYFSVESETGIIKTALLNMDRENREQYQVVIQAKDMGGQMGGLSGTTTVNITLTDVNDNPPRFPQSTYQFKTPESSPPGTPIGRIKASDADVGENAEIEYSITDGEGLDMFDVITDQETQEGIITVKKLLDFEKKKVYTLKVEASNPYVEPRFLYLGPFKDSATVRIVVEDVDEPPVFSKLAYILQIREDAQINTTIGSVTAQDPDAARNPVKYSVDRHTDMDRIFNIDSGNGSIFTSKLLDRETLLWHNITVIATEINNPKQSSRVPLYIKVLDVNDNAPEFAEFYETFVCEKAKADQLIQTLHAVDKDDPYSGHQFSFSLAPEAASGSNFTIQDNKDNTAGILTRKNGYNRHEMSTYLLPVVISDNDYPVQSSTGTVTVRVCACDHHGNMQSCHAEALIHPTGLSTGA
As to the kind of experiment: SPR (Biacore T200), antigen captured by immobilized anti-histidine antibody, antibody as analyte, steady state affinity model. As to the method:
The dissociation constant of a construct of each of H01L02A, H11L02A and H31L02A prepared in Example 7)-4 and human CDH6 was measured by using Biacore T200 (GE Healthcare Biosciences Corp.), according to a capture method, which comprises capturing the antigen as a ligand with Anti-histidine antibody immobilized by means of a His Capture Kit (manufactured by GE Healthcare Bioscience) and then measuring the dissociation constant using an antibody as an analyte. As the sensor chip, CM5 (manufactured by GE Healthcare Bioscience) was used. As the running buffer, buffer containing 20 mM Tris-HCl, 150 mM NaCl, 1 mM CaCl₂ and 0.05% Surfactant P20 (pH7.4), was used. On the chip, a 1 μg/mL Recombinant Human Cadherin-6 (KCAD)/Fc Chimera (RD-SYSTEMS) was added at a rate of 10 μL/minute for 60 seconds, and a dilution series solution (0.11 to 81 μg/mL) of the antibody prepared in Example 7)-4 was then added at a flow rate of 30 μl/min for 180 seconds. Subsequently, the dissociation phase was monitored for 180 seconds. As a regeneration solution, a Glycine 1.5 (GE Healthcare Bioscience made by the company) was added at a flow rate of 20 μl/min for 30 seconds. A Steady State Affinity model was used in data analysis, and the dissociation constant (KD) was calculated.

The target of assay [2] is T2, human CDH6 (full-length, on cells) (human, UniProt P55285 54-790).
T2 construct: also called hCDH6; full-length hCDH6
T2 sequence: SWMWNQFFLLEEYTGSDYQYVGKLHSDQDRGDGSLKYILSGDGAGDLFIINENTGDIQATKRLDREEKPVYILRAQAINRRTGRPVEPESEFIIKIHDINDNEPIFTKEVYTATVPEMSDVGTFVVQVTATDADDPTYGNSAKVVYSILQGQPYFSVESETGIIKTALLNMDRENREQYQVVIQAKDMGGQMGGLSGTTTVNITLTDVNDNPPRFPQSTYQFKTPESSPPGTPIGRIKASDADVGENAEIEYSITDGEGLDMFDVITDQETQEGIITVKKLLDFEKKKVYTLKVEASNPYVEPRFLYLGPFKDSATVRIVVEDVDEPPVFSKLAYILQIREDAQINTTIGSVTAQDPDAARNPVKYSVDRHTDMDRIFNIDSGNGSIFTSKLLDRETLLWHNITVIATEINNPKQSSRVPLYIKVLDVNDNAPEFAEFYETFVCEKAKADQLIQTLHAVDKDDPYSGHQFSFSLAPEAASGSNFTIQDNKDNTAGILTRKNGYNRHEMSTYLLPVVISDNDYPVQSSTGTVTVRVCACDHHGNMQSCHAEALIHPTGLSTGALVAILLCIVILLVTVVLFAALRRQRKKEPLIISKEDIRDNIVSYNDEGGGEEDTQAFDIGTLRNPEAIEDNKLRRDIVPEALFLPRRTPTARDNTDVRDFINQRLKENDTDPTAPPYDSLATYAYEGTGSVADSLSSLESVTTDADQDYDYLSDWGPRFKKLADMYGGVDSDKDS
As to the kind of experiment: flow cytometry, 293α cells transiently transfected with pcDNA3.1-hCDH6, PE anti-human IgG Fcγ F(ab')2, mean fluorescence intensity. On the procedure: (§1) The CDH6-binding activity of the human chimeric anti-CDH6 antibody chG019 purified in 4)-2 was confirmed by flow cytometry. […] The cells were cultured overnight under conditions of 37° C. and 5% CO₂, treated with TrypLE Express (Thermo Fisher Scientific Inc.), and thereafter, a cell suspension was prepared. chG019 was added to the suspension of each of these cells. The cells were left standing at 4° C. for 1 hour. Thereafter, the cells were washed twice with PBS supplemented with 5% FBS, and then suspended by the addition of PE-labeled F(ab′)2 Fragment anti-human IgG, Fcγ antibody (Jackson ImmunoResearch Laboratories, Inc.) that had been 500-fold diluted with PBS supplemented with 5% FBS. The cells were left standing at 4° C. for 1 hour. The cells were washed twice with PBS supplemented with 5% FBS, and then re-suspended in PBS supplemented with 5% FBS, followed by detection using a flow cytometer (Canto II; BD Biosciences). The data was analyzed using FlowJo (TreeStar, Inc.). […] In FIG. 4, the abscissa depicts antibody concentration, and the ordinate depicts the amount of the antibody bound, based on mean fluorescence intensity.

Assay [3] deals with T3, cynomolgus monkey CDH6 (full-length, on cells) (cynomolgus monkey, UniProt P55285 54-790 (human entry)).
T3 construct: Expressed from pcDNA3.1-cynoCDH6 on transfected cells; also called cynoCDH6
T3 sequence: T2 sequence with Y300H, H457R, A707G
Nature of the assay: flow cytometry, 293α cells transiently transfected with pcDNA3.1-cynoCDH6, PE anti-human IgG Fcγ F(ab')2, mean fluorescence intensity. On the procedure:
as §1

Changes are numbered by the printed parent chain. Numbers in names are those of the source.

B1: humanized anti-CDH6 antibody H01L02A (antibody, human IgG1, kappa, L234A L235A)
heavy: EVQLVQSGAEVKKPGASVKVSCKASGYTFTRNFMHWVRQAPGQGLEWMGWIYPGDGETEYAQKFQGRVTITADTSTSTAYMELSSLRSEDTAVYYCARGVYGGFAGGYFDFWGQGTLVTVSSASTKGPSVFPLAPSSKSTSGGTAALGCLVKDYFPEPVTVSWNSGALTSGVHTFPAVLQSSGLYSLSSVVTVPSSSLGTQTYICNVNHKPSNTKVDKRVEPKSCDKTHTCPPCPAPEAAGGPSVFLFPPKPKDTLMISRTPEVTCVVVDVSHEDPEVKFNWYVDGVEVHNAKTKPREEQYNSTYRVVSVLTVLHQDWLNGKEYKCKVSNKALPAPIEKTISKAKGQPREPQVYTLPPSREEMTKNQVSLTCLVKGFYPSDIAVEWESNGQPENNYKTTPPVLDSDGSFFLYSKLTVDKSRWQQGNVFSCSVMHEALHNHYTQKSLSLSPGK
light: DIQMTQSPSSLSASVGDRVTITCKASQNIYKNLAWYQQKPGKAPKLLIYDANTLQTGVPSRFSGSGSGSDFTLTISSLQPEDFATYFCQQYYSGWAFGQGTKVEIKRTVAAPSVFIFPPSDEQLKSGTASVVCLLNNFYPREAKVQWKVDNALQSGNSQESVTEQDSKDSTYSLSSTLTLSKADYEKHKVYACEVTHQGLSSPVTKSFNRGEC
notes: hH01A heavy chain (hH01 with L234A/L235A, EU index; IgG1 LALA) and hL02 light chain; also called H01L02A antibody
On to B1, for which the Kd in assay [1] is 2.8 nM.

B2: humanized anti-CDH6 antibody H11L02A (antibody, human IgG1, kappa, L234A L235A, V domains shown)
VH: EVQLVQSGAEVKKPGASVKVSCKASGYTFTRNFMHWVRQAPGQGLEWMGWIAPGDGETEYAQKFQGRVTITADTSTSTAYMELSSLRSEDTAVYYCARGVYGGFAGGYFDFWGQGTLVTVSS
VL: DIQMTQSPSSLSASVGDRVTITCKASQNIYKNLAWYQQKPGKAPKLLIYDANTLQTGVPSRFSGSGSGSDFTLTISSLQPEDFATYFCQQYYSGWAFGQGTKVEIKR
notes: hH11A heavy chain (hH01 with the 71st tyrosine changed to alanine, IgG1 LALA) and hL02 light chain; also called H11L02A antibody
B2: the Kd in assay [1] stood at 43.1 nM.

B3: humanized anti-CDH6 antibody H31L02A (antibody, human IgG1, kappa, L234A L235A, V domains shown)
VH: B2 VH with A52Y, Q62S, F104A
VL: B2 VL
notes: hH31A heavy chain (hH01 with the 81st glutamine changed to serine and the 123rd phenylalanine to alanine, IgG1 LALA) and hL02 light chain; also called H31L02A antibody
As to B3, the Kd in assay [1] worked out at 11.1 nM.

B4: human chimeric anti-CDH6 antibody chG019 (antibody, human IgG1)
heavy: not shown
light: DIQMTQSPSLLSASVGDRVTLNCKASQNIYKNLAWYQQKLGEGPKLLIYDANTLQTGIPSRFSGSGSGSDFTLTISSLQPEDVATYFCQQYYSGWAFGGVTNLELKRAVAAPSVFIFPPSDEQLKSGTASVVCLLNNFYPREAKVQWKVDNALQSGNSQESVTEQDSKDSTYSLSSTLTLSKADYEKHKVYACEVTHQGLSSPVTKSFNRGEC
notes: Human IgG1/kappa constant regions; also called chimeric G019 antibody; chG019 antibody
As for B4, the “EC50 (read off the curve)” value in assay [2] and in assay [3] was approximately 0.01 µg/mL in each case.
